The results in this text go back to US20250263504A1 (Takeda / Millennium, published 2025).

The labels stand for the following.
T1: Factor XIIa (FXIIa) (UniProt P00748 20-372; P00748 373-615, limits assumed)
T1 construct: the description speaks of human FXIIa; also called active Factor XII
T1 sequence (looked up) 1: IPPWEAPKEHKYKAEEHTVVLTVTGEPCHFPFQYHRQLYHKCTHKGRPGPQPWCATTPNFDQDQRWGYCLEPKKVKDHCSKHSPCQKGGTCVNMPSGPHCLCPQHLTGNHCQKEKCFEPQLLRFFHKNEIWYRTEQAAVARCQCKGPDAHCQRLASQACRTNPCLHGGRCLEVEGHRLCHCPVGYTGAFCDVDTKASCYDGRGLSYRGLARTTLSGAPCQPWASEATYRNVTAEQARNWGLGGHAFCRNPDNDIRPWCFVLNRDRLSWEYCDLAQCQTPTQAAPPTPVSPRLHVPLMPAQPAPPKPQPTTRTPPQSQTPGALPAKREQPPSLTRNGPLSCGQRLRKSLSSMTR
T1 sequence (looked up) 2: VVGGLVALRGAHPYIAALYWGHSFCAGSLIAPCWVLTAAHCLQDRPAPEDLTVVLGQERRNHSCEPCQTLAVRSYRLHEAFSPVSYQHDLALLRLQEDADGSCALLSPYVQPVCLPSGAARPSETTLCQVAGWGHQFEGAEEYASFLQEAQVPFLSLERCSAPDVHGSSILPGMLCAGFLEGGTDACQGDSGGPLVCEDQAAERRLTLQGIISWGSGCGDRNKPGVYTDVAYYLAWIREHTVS

B1: 620I-X0136-C05 (bispecific antibody)
heavy: not shown
light: DIQMTQSPSTLSASVGDRVTITCRASQSISSWLAWYQQKPGKAPKLLIYKASTLESGVPSRFSGSGSGTEFTLTISSLQPDDFATYYCQQYNTYWTFGQGTKVEIKRTVAAPSVFIFPPSDEQLKSGTASVVCLLNNFYPREAKVQWKVDNALQSGNSQESVTEQDSKDSTYSLSSTLTLSKADYEKHKVYACEVTHQGLSSPVTKSFNRGEC
notes: also called 620I-X136-C05
B2: 620I-X0139-G02 (bispecific antibody)
heavy: not shown
light: B1 light
notes: also called 620I-X139-G02
B3: 620I-X0138-A06 (bispecific antibody)
heavy: not shown
light: B1 light
notes: also called 620I-X138-A06
B4: 620I-X0136-A09 (bispecific antibody, human IgG1, kappa)
heavy: not shown
light: B1 light
notes: also called 620I-X136-A09
B5: 620I-X0136-B07 (bispecific antibody)
heavy: not shown
light: B1 light
notes: also called 620I-X136-B07
B6: 620I-X0142-A10 (bispecific antibody)
heavy: not shown
light: B1 light
notes: also called 620I-X142-A10
B7: 620I-X0136-D06 (bispecific antibody)
heavy: not shown
light: B1 light
notes: also called 620I-X136-D06
B8: 620I-X0136-E05 (bispecific antibody)
heavy: not shown
light: B1 light
notes: also called 620I-X136-E05
B9: 620I-X0136-F07 (bispecific antibody)
heavy: not shown
light: B1 light
notes: also called 620I-X136-F07
B10: 620I-X0137-C08 (bispecific antibody)
heavy: not shown
light: B1 light
notes: also called 620I-X137-C08
B11: 620I-X0136-C04 (bispecific antibody)
heavy: not shown
light: B1 light
notes: also called 620I-X136-C04
B12: 620I-X0142-A11 (bispecific antibody)
heavy: not shown
light: B1 light
notes: also called 620I-X142-A11
B13: 620I-X0136-A05 (bispecific antibody)
heavy: not shown
light: B1 light
notes: also called 620I-X136-A05
B14: 620I-X0137-A10 (bispecific antibody)
heavy: not shown
light: B1 light
notes: also called 620I-X137-A10
B15: 620I-X0136-G04 (bispecific antibody)
heavy: not shown
light: B1 light
notes: also called 620I-X136-G04
B16: 620I-X0138-A01 (bispecific antibody)
heavy: not shown
light: B1 light
notes: also called 620I-X138-A01
B17: 620I-X0136-G10 (bispecific antibody)
heavy: not shown
light: B1 light
notes: also called 620I-X136-G10
B18: 620I-X0136-B02 (bispecific antibody)
heavy: not shown
light: B1 light
notes: also called 620I-X136-B02
B19: 620I-X0138-A08 (bispecific antibody)
heavy: not shown
light: B1 light
notes: also called 620I-X138-A08
B20: 620I-X0136-A02 (bispecific antibody)
heavy: not shown
light: B1 light
notes: also called 620I-X136-A02
B21: 620I-X0136-D12 (bispecific antibody)
heavy: not shown
light: B1 light
notes: also called 620I-X136-D12
B22: 620I-X0136-F11 (bispecific antibody)
heavy: not shown
light: B1 light
notes: also called 620I-X136-F11
B23: 620I-X0138-A02 (bispecific antibody)
heavy: not shown
light: B1 light
notes: also called 620I-X138-A02
B24: 620I-X0136-C08 (bispecific antibody)
heavy: not shown
light: B1 light
notes: also called 620I-X136-C08
B25: 620I-X0138-B06 (bispecific antibody)
heavy: not shown
light: B1 light
notes: also called 620I-X138-B06
B26: 620I-X0136-C12 (bispecific antibody)
heavy: not shown
light: B1 light
notes: also called 620I-X136-C12
B27: 620I-X0136-A01 (bispecific antibody)
heavy: not shown
light: B1 light
notes: also called 620I-X136-A01
B28: 620I-X0137-B08 (bispecific antibody)
heavy: not shown
light: B1 light
notes: also called 620I-X137-B08
B29: 620I-X0136-C07 (bispecific antibody)
heavy: not shown
light: B1 light
notes: also called 620I-X136-C07
B30: 620I-X0136-G08 (bispecific antibody)
heavy: not shown
light: B1 light
notes: also called 620I-X136-G08
B31: 620I-X0136-A11 (bispecific antibody)
heavy: not shown
light: B1 light
notes: also called 620I-X136-A11
B32: 620I-X0136-C01 (bispecific antibody)
heavy: not shown
light: B1 light
notes: also called 620I-X136-C01
B33: 620I-X0142-E09 (bispecific antibody)
heavy: not shown
light: B1 light
notes: also called 620I-X142-E09
B34: 620I-X0136-C11 (bispecific antibody)
heavy: not shown
light: B1 light
notes: also called 620I-X136-C11
B35: 620I-X0136-E07 (bispecific antibody)
heavy: not shown
light: B1 light
notes: also called 620I-X136-E07
B36: 620I-X0136-A04 (bispecific antibody)
heavy: not shown
light: B1 light
notes: also called 620I-X136-A04
B37: 620I-X0136-G05 (bispecific antibody)
heavy: not shown
light: B1 light
notes: also called 620I-X136-G05
B38: 620I-X0136-A12 (bispecific antibody)
heavy: not shown
light: B1 light
notes: also called 620I-X136-A12
B39: 620I-X0136-D05 (bispecific antibody)
heavy: not shown
light: B1 light
notes: also called 620I-X136-D05
B40: 620I-X0138-A12 (bispecific antibody)
heavy: not shown
light: B1 light
notes: also called 620I-X138-A12
B41: 620I-X0136-B11 (bispecific antibody)
heavy: not shown
light: B1 light
notes: also called 620I-X136-B11
B42: 620I-X0136-C09 (bispecific antibody)
heavy: not shown
light: B1 light
notes: also called 620I-X136-C09

T2 sequence (P03952 20-390 limits assumed, form in doubt, chain 1 of 2): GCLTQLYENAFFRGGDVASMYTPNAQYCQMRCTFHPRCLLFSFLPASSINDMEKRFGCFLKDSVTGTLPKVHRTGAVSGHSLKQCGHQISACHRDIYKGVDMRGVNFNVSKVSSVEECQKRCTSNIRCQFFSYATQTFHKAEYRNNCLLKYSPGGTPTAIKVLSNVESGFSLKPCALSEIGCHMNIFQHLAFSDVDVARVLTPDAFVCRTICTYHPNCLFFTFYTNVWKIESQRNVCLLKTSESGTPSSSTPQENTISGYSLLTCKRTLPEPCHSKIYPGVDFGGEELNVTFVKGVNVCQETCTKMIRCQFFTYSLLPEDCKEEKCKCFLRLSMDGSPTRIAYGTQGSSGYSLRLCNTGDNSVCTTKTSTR
T2 sequence (P03952 391-638 limits assumed, form in doubt, chain 2 of 2): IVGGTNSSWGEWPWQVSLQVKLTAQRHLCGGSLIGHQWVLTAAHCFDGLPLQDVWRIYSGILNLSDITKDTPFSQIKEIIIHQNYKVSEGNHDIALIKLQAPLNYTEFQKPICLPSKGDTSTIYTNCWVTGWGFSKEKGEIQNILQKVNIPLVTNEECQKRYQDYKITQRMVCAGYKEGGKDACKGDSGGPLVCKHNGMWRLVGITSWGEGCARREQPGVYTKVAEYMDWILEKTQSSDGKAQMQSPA

One assay has as its target T2, plasma kallikrein (pKal) (UniProt P03952 20-390; P03952 391-638, limits assumed).
T2 construct: the description speaks of human pKal; also called active pKal
Briefly: enzyme inhibition, corrected Ki,app.
As for B1, the Ki was found to be 0.15 nM.
Molecule B2 yielded a Ki of 0.171 nM.
Regarding B3, the Ki was found to be 0.145 nM.
B4 had a Ki of 0.19 nM.
B5 registered a Ki of 0.168 nM.
B6: the Ki worked out at 0.175 nM.
Still for that read-out and setting: under B7 stands 0.176 nM; under B8, 0.158 nM; under B9, 0.183 nM.
As to B10, the Ki is 0.153 nM.
In turn, B11 returned a Ki of 0.205 nM.
On to B12, for which the Ki was determined as 0.158 nM.
In turn, B13 gave a Ki of 0.179 nM.
As to B14, the Ki turned out to be 0.195 nM.
On the same count and under the same terms, as for B15, the figure is 0.179 nM; as for B16, 0.154 nM.
With B17, the Ki was determined as 0.171 nM.
Molecule B18 returned a Ki of 0.21 nM.
B19 yielded a Ki of 0.92 nM.
The same measure, in the same setting: under B20 stands 0.176 nM.
On to B21, for which the Ki was 0.179 nM.
B22 yielded a Ki of 0.201 nM.
Still for that read-out and setting: as for B23, the figure is 0.206 nM; as for B24, 0.216 nM.
Same read-out and setting: under B25 stands 0.33 nM.
Take B26: the Ki worked out at 0.217 nM.
Turning to B27, the Ki is 0.135 nM.
For B28, the Ki was 0.312 nM.
Same read-out and setting: as for B29, the figure is 0.182 nM; as for B30, 0.176 nM; as for B31, 0.199 nM.
On to B32, for which the Ki was 0.173 nM.
Molecule B33 gave a Ki of 0.174 nM.
For the molecule B34, the Ki was found to be 0.154 nM.
Molecule B35 displayed a Ki of 0.19 nM.
B36 displayed a Ki of 0.171 nM.
With B37, the Ki was found to be 0.179 nM.
On the same count and under the same terms, under B38 stands 0.234 nM.
As to B39, the Ki stood at 0.055 nM.
B40 showed a Ki of 0.405 nM.
In turn, B41 returned a Ki of 0.172 nM.
Still for that read-out and setting: as for B42, the figure is 0.173 nM.

Another assay deals with T1, Factor XIIa (FXIIa). Briefly: enzyme inhibition, corrected Ki,app.
With B1, the Ki came to 0.058 nM.
B2: the Ki is 0.161 nM.
In turn, B5 yielded a Ki of 0.099 nM.
B6 showed a Ki of 0.389 nM.
For B7, the Ki stood at 0.084 nM.
On the same count and under the same terms, under B8 stands 0.172 nM.
The molecule B9 came in with a Ki of 0.167 nM.
The molecule B10 yielded a Ki of 0.034 nM.
The same measure, in the same setting: under B11 stands 0.189 nM; under B12, 0.195 nM; under B13, 0.111 nM.
Regarding B14, the Ki stood at 0.205 nM.
B15 registered a Ki of 0.107 nM.
The molecule B16 gave a Ki of 0.465 nM.
Take B17: the Ki is 0.028 nM.
Still for that read-out and setting: under B18 stands 2.86 nM.
B19 registered a Ki of 0.357 nM.
Molecule B20 came in with a Ki of 0.136 nM.
With B21, the Ki came to 0.063 nM.
Turning to B22, the Ki was 0.235 nM.
B23 showed a Ki of 0.288 nM.
Molecule B24 returned a Ki of 1.23 nM.
B25 came in with a Ki of 0.405 nM.
As for B26, the Ki is 1.57 nM.
In the case of B27, the Ki was 0.224 nM.
Molecule B28 had a Ki of 0.409 nM.
Still for that read-out and setting: under B29 stands 0.699 nM.
Turning to B30, the Ki is 0.028 nM.
On the same count and under the same terms, under B31 stands 0.193 nM.
For B32, the Ki came to 0.957 nM.
Still for that read-out and setting: as for B33, the figure is 0.163 nM; as for B34, 0.038 nM; as for B35, 0.312 nM.
On to B36, for which the Ki came to 0.23 nM.
With B37, the Ki worked out at 0.1 nM.
B38 registered a Ki of 0.304 nM.
B39 yielded a Ki of 0.013 nM.
Molecule B40 displayed a Ki of 1.93 nM.
As to B41, the Ki was 0.184 nM.
Same read-out and setting: under B42 stands 0.09 nM.
